From paper PMC4722173, “Identification of the Elusive Pyruvate Reductase of Chlamydomonas reinhardtii Chloroplasts” (Plant and Cell Physiology, 2015)
Each block holds one molecule with its values, some of them ahead of it.

Key:
His-tagged Cr-LDH1 [1] = target: T1, His-tagged Cr-LDH1 (Chlamydomonas reinhardtii, UniProt B0LUZ5); assay: spectrophotometric NADH oxidation at […] nm; assay type: biochemical; settings: 300 µM NADH with pyruvate; pH 7.5; 25 °C; mere turnover
T1 construct: residues 45-421, putative 44-residue chloroplast transit peptide removed, C-terminal His tag kept, codon-optimized synthetic gene, pET28b, E. coli KRX; 40 kDa, tetramer (about 200 kDa)
T1 sequence (B0LUZ5 45-421): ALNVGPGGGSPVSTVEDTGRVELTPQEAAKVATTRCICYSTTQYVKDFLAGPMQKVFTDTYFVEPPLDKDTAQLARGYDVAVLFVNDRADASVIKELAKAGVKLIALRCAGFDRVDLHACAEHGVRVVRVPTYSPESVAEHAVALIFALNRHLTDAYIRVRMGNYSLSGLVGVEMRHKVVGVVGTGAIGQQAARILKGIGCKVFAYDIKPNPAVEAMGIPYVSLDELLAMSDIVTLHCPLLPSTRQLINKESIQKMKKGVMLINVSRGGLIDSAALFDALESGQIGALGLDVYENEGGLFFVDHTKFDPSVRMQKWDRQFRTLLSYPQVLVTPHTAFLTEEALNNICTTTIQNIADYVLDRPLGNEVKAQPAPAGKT

[2] = target: His-tagged recombinant Cr-LDH1 (NAD+-dependent D-lactate dehydrogenase encoded by Cre07.g324550), residues 45-421 (Chlamydomonas reinhardtii); assay: crystal structure; sitting drop, approximately 14.5 mg/ml protein with 300 µM NAD+, 20% PEG 3350, 200 mM potassium nitrate; 2.46 Å; tetramer as predicted by PISA
His-tagged Cr-LDH1 [3] = target: T1, His-tagged Cr-LDH1; assay: X-ray crystallography, […] Å; assay type: binding; settings: 300 µM NAD+ in protein solution before crystallization; active site of each monomer, near H378, R311, E340
[4] = target: PFL1 (pyruvate formate lyase), endogenous, in Chlamydomonas reinhardtii whole-cell extract (Chlamydomonas reinhardtii (endogenous in whole-cell extract)); assay: native gel or EMSA; 1D BN-PAGE of C. reinhardtii whole-cell extracts, immunoblot with Cr-LDH1 or PFL1 antibodies
purified protein [5] = substrate: C[C@@H](O)C(=O)O; assay: purified protein; settings: 300 µM NAD+, 25 mM sodium phosphate, 250 mM NaCl, pH 7.5, 25 °C
purified protein [6] = substrate: O=CC(=O)O; assay: purified protein; assay type: biochemical, Chlamydomonas reinhardtii; settings: 300 µM NADH, 25 mM sodium phosphate, 250 mM NaCl, pH 7.5, 25 °C
purified protein [7] = substrate: CC(=O)C(=O)O; assay: purified protein; assay type: biochemical, Chlamydomonas reinhardtii; settings: 300 µM NADH, 25 mM sodium phosphate, 250 mM NaCl, pH 7.5, 25 °C, mean ± SD of two protein preparations

Molecule: NC(=O)C1=CN([C@@H]2O[C@H](COP(=O)(O)OP(=O)(O)OC[C@H]3O[C@@H](n4cnc5c(N)ncnc54)[C@H](O)[C@@H]3O)[C@@H](O)[C@H]2O)C=CC1 [NADH]
spectrophotometric NADH oxidation at 340 nm (His-tagged Cr-LDH1 [1]): preference for the reduction of pyruvate to D-lactate and a specificity for NADH

stoichiometry N [2]: 4
Molecule: His-tagged recombinant Cr-LDH1 (NAD+-dependent D-lactate dehydrogenase encoded by Cre07.g324550), residues 45-421 (enzyme)

Molecule: NC(=O)c1ccc[n+]([C@@H]2O[C@H](COP(=O)(O)OP(=O)(O)OC[C@H]3O[C@@H](n4cnc5c(N)ncnc54)[C@H](O)[C@@H]3O)[C@@H](O)[C@H]2O)c1 [NAD^+]
X-ray crystallography, 2.46 Å (His-tagged Cr-LDH1 [3]): NAD^+ molecules added during crystallization were observed in the active site of each monomer

stoichiometry N [4]: 2
Molecule: PFL1 (pyruvate formate lyase), endogenous, in Chlamydomonas reinhardtii whole-cell extract (enzyme)

B1: His-tagged Cr-LDH1 (Chlamydomonas reinhardtii) (protein)
chain: T1 sequence (B0LUZ5 45-421)
notes: residues 45-421, putative 44-residue chloroplast transit peptide removed, C-terminal His tag kept, codon-optimized synthetic gene, pET28b, E. coli KRX; 40 kDa, tetramer (about 200 kDa)
Km (purified protein [5]): 70 mM
kcat (purified protein [5]): 10 s⁻¹
kcat/Km (purified protein [5]): 150 M⁻¹ s⁻¹
Km (purified protein [6]): 62 mM
kcat (purified protein [6]): 60 s⁻¹
kcat/Km (purified protein [6]): 1000 M⁻¹ s⁻¹
Km (purified protein [7]): 1.46 ± 0.01 mM
kcat (purified protein [7]): 370 ± 2 s⁻¹
kcat/Km (purified protein [7]): 255000 ± 7000 M⁻¹ s⁻¹
